Square brackets hold non-standard residues; d marks the D form. Ends that are not written are not given here. Cit = NC(=O)NCCC[C@H](N)C(=O)O
T1: citrullinated histone 4-derived peptide (SEQ ID NO: 20), C-terminal biotin (human, citrulline at position 3; biotin at the C-terminus)
T1 construct: Immobilized on streptavidin biosensors (Octet RED96); also called H4-derived peptide; N-terminal histone 4 peptide
T1 peptide: SGXGKGGKGLGK

T2: citrullinated histone 2A-derived peptide (SEQ ID NO: 18), C-terminal biotin (human)
T2 construct: Captured by its biotin on NeutrAvidin plates (ELISA) or streptavidin biosensors (Octet); also called histone-derived peptide; citrullinated H2A-derived peptide
T2 peptide: SG[Cit]GKQGGKARA-biotin


Experiments:
[1] = molecular target: T1, citrullinated histone 4-derived peptide …; assay: Octet RED96 off-rate screen, biotinylated peptide on streptavidin biosensors, antibody 72 nM, 30 C
Method: (§1) Off-rate screening of the isomerization-mutated antibodies was performed on an Octet® RED96 (biomolecule detection system) instrument (Pall ForteBio). All measurements were performed at 30° C. Streptavidin (SA) biosensors were first washed for 50 sec with PBS. 1 μg/ml N-terminal histone 2A (SEQ ID NO: 18) and histone 4 (SEQ ID NO: 20) peptides, containing both a citrulline at position 3 and a biotin at the C-terminus, were immobilized on SA biosensors for 200 sec, washed with PBS for 50 sec and excess reactive streptavidin molecules blocked with EZ-Link™ biocytin for 200 sec. After two additional 50 sec wash steps in PBS, antibodies at a concentration of 72 nM diluted in PBS were allowed to bind to the biosensors for 200 sec. Sensors were subsequently placed in PBS for 4000 sec in order to measure their dissociation rates.
(§2) Background signals generated with non-coated biosensors, which have been exposed to the various antibodies as well as signals from coated biosensors that have not been exposed to the various antibodies, have been subtracted before dissociation curves for each antibody were plotted. Both histone 2A and histone 4 dissociation rates constants (kdis×E-07 (1/s)) for each antibody were calculated applying a 1:1 interaction model (fitting local, full) using ForteBio data analysis software 8.1.

[2] = molecular target: T2, citrullinated histone 2A-derived …; assay: as above
Method: as §1, §2

| Binder | binding result [1] | binding result [2] |
| --- | --- | --- |
| hMQ22.101j/LC17 (antibody, V domains shown, also called isomerization mutant; heavy chain hVH22.101j with light chain hVL22.101LC17) VH: QVQLVQSGAEVKKPGASVKVSCKASGYTFTNYGMHWVRQAPGQGLEWMGWINTYSGEATYAQKFQGRVTMTRDTSISTAYMELSRLRSDDTAVYYCLRGYTYQSFDEGGDYWGQGTLVTVSS VL: DVVMTQSPLSLPVTLGQPASISCRSSQSLLDTDGKTYLNWFQQRPGQSPRRLIYLVSKLDSGVPDRFSGSGSGTDFTLKISRVEAEDVGVYYCWQGTHFPYTFGQGTKLEIK | binds | binds |
| hMQ22.101HC8/LC17 (antibody, V domains shown, also called isomerization mutant; heavy chain hVH22.101HC8 with light chain hVL22.101LC17) VH: QVQLVQSGAEVKKPGSSVKVSCKASGYTFTNYGMHWVRQAPGQGLEWMGWINTYSGEATYVDDFQGRVTITADESTSTAYMELSSLRSEDTAVYYCLRGYTYQSFDEGGDYWGQGTLVTVSS VL: DVVMTQSPLSLPVTLGQPASISCRSSQSLLDTDGKTYLNWFQQRPGQSPRRLIYLVSKLDSGVPDRFSGSGSGTDFTLKISRVEAEDVGVYYCWQGTHFPYTFGQGTKLEIK | binds | binds |
| hMQ22.101j/LC21 (antibody, V domains shown, also called isomerization mutant; heavy chain hVH22.101j with light chain hVL22.101LC21) VH: QVQLVQSGAEVKKPGASVKVSCKASGYTFTNYGMHWVRQAPGQGLEWMGWINTYSGEATYAQKFQGRVTMTRDTSISTAYMELSRLRSDDTAVYYCLRGYTYQSFDEGGDYWGQGTLVTVSS VL: DVVMTQSPLSLPVTLGQPASISCRSSQSLLDSDAKTYLNWFQQRPGQSPRRLIYLVSKLDSGVPDRFSGSGSGTDFTLKISRVEAEDVGVYYCWQGTHFPYTFGQGTKLEIK | binds | binds |
| hMQ22.101HC8/LC41 (antibody, V domains shown, also called isomerization mutant; heavy chain hVH22.101HC8 with light chain hVL22.101LC41) VH: QVQLVQSGAEVKKPGSSVKVSCKASGYTFTNYGMHWVRQAPGQGLEWMGWINTYSGEATYVDDFQGRVTITADESTSTAYMELSSLRSEDTAVYYCLRGYTYQSFDEGGDYWGQGTLVTVSS VL: DVVMTQSPLSLPVTLGQPASISCRSSQSLLDADGKTYLNWFQQRPGQSPRRLIYLVSKLDSGVPDRFSGSGSGTDFTLKISRVEAEDVGVYYCWQGTHFPYTFGQGTKLEIK | binds | binds |
| hMQ22.101HC9/LC17 (antibody, V domains shown, also called isomerization mutant; heavy chain hVH22.101HC9 with light chain hVL22.101LC17) VH: RIQLVQSGAEVKKPGASVKVSCKASGYTFTNYGMHWVRQAPGQGLEWMGWINTYSGEATYVDDFQGRVTMTRDTSISTAYMELSRLRSDDTAVYYCLRGYTYQSFDEGGDYWGQGTLVTVSS VL: DVVMTQSPLSLPVTLGQPASISCRSSQSLLDTDGKTYLNWFQQRPGQSPRRLIYLVSKLDSGVPDRFSGSGSGTDFTLKISRVEAEDVGVYYCWQGTHFPYTFGQGTKLEIK | binds | binds |
| hMQ22.101HC9/LC42 (antibody, V domains shown, also called isomerization mutant; heavy chain hVH22.101HC9 with light chain hVL22.101LC42) VH: RIQLVQSGAEVKKPGASVKVSCKASGYTFTNYGMHWVRQAPGQGLEWMGWINTYSGEATYVDDFQGRVTMTRDTSISTAYMELSRLRSDDTAVYYCLRGYTYQSFDEGGDYWGQGTLVTVSS VL: DVVMTQSPLSLPVTLGQPASISCRSSQSLLDNDGKTYLNWFQQRPGQSPRRLIYLVSKLDSGVPDRFSGSGSGTDFTLKISRVEAEDVGVYYCWQGTHFPYTFGQGTKLEIK | binds | binds |
| hMQ22.101HC7/LC21 (antibody, V domains shown, also called isomerization mutant; heavy chain hVH22.101HC7 with light chain hVL22.101LC21) VH: QVQLVQSGAEVKKPGSSVKVSCKASGYTFTNYGMHWVRQAPGQGLEWMGWINTYSGEATYAQKFQGRVTITADESTSTAYMELSSLRSEDTAVYYCLRGYTYQSFDEGGDYWGQGTLVTVSS VL: DVVMTQSPLSLPVTLGQPASISCRSSQSLLDSDAKTYLNWFQQRPGQSPRRLIYLVSKLDSGVPDRFSGSGSGTDFTLKISRVEAEDVGVYYCWQGTHFPYTFGQGTKLEIK | binds | binds |
| hMQ22.101HC7/LC17 (antibody, V domains shown, also called isomerization mutant; heavy chain hVH22.101HC7 with light chain hVL22.101LC17) VH: QVQLVQSGAEVKKPGSSVKVSCKASGYTFTNYGMHWVRQAPGQGLEWMGWINTYSGEATYAQKFQGRVTITADESTSTAYMELSSLRSEDTAVYYCLRGYTYQSFDEGGDYWGQGTLVTVSS VL: DVVMTQSPLSLPVTLGQPASISCRSSQSLLDTDGKTYLNWFQQRPGQSPRRLIYLVSKLDSGVPDRFSGSGSGTDFTLKISRVEAEDVGVYYCWQGTHFPYTFGQGTKLEIK | binds | binds |
| hMQ22.101HC7/LC27 (antibody, V domains shown, also called isomerization mutant; heavy chain hVH22.101HC7 with light chain hVL22.101LC27) VH: QVQLVQSGAEVKKPGSSVKVSCKASGYTFTNYGMHWVRQAPGQGLEWMGWINTYSGEATYAQKFQGRVTITADESTSTAYMELSSLRSEDTAVYYCLRGYTYQSFDEGGDYWGQGTLVTVSS VL: DVVMTQSPLSLPVTLGQPASISCRSSQSLLDTDAKTYLNWFQQRPGQSPRRLIYLVSKLDSGVPDRFSGSGSGTDFTLKISRVEAEDVGVYYCWQGTHFPYTFGQGTKLEIK | binds | binds |
| hMQ22.101HC7/LC41 (antibody, V domains shown, also called isomerization mutant; heavy chain hVH22.101HC7 with light chain hVL22.101LC41) VH: QVQLVQSGAEVKKPGSSVKVSCKASGYTFTNYGMHWVRQAPGQGLEWMGWINTYSGEATYAQKFQGRVTITADESTSTAYMELSSLRSEDTAVYYCLRGYTYQSFDEGGDYWGQGTLVTVSS VL: DVVMTQSPLSLPVTLGQPASISCRSSQSLLDADGKTYLNWFQQRPGQSPRRLIYLVSKLDSGVPDRFSGSGSGTDFTLKISRVEAEDVGVYYCWQGTHFPYTFGQGTKLEIK | binds | binds |

The next lines start with the values.

| binding result [1] | binding result [2] | Binder |
| --- | --- | --- |
| binds | binds | hMQ22.101HC9/LC21 (antibody, V domains shown, also called isomerization mutant; heavy chain hVH22.101HC9 with light chain hVL22.101LC21) VH: RIQLVQSGAEVKKPGASVKVSCKASGYTFTNYGMHWVRQAPGQGLEWMGWINTYSGEATYVDDFQGRVTMTRDTSISTAYMELSRLRSDDTAVYYCLRGYTYQSFDEGGDYWGQGTLVTVSS VL: DVVMTQSPLSLPVTLGQPASISCRSSQSLLDSDAKTYLNWFQQRPGQSPRRLIYLVSKLDSGVPDRFSGSGSGTDFTLKISRVEAEDVGVYYCWQGTHFPYTFGQGTKLEIK |
| binds | binds | hMQ22.101HC8/LC42 (antibody, V domains shown, also called isomerization mutant; heavy chain hVH22.101HC8 with light chain hVL22.101LC42) VH: QVQLVQSGAEVKKPGSSVKVSCKASGYTFTNYGMHWVRQAPGQGLEWMGWINTYSGEATYVDDFQGRVTITADESTSTAYMELSSLRSEDTAVYYCLRGYTYQSFDEGGDYWGQGTLVTVSS VL: DVVMTQSPLSLPVTLGQPASISCRSSQSLLDNDGKTYLNWFQQRPGQSPRRLIYLVSKLDSGVPDRFSGSGSGTDFTLKISRVEAEDVGVYYCWQGTHFPYTFGQGTKLEIK |
| binds | binds | hMQ22.101HC9/LC41 (antibody, V domains shown, also called isomerization mutant; heavy chain hVH22.101HC9 with light chain hVL22.101LC41) VH: RIQLVQSGAEVKKPGASVKVSCKASGYTFTNYGMHWVRQAPGQGLEWMGWINTYSGEATYVDDFQGRVTMTRDTSISTAYMELSRLRSDDTAVYYCLRGYTYQSFDEGGDYWGQGTLVTVSS VL: DVVMTQSPLSLPVTLGQPASISCRSSQSLLDADGKTYLNWFQQRPGQSPRRLIYLVSKLDSGVPDRFSGSGSGTDFTLKISRVEAEDVGVYYCWQGTHFPYTFGQGTKLEIK |
| binds | binds | hMQ22.101HC8/LC27 (antibody, V domains shown, also called isomerization mutant; heavy chain hVH22.101HC8 with light chain hVL22.101LC27) VH: QVQLVQSGAEVKKPGSSVKVSCKASGYTFTNYGMHWVRQAPGQGLEWMGWINTYSGEATYVDDFQGRVTITADESTSTAYMELSSLRSEDTAVYYCLRGYTYQSFDEGGDYWGQGTLVTVSS VL: DVVMTQSPLSLPVTLGQPASISCRSSQSLLDTDAKTYLNWFQQRPGQSPRRLIYLVSKLDSGVPDRFSGSGSGTDFTLKISRVEAEDVGVYYCWQGTHFPYTFGQGTKLEIK |
| binds | binds | hMQ22.101HC8/LC21 (antibody, V domains shown, also called isomerization mutant; heavy chain hVH22.101HC8 with light chain hVL22.101LC21) VH: QVQLVQSGAEVKKPGSSVKVSCKASGYTFTNYGMHWVRQAPGQGLEWMGWINTYSGEATYVDDFQGRVTITADESTSTAYMELSSLRSEDTAVYYCLRGYTYQSFDEGGDYWGQGTLVTVSS VL: DVVMTQSPLSLPVTLGQPASISCRSSQSLLDSDAKTYLNWFQQRPGQSPRRLIYLVSKLDSGVPDRFSGSGSGTDFTLKISRVEAEDVGVYYCWQGTHFPYTFGQGTKLEIK |
| binds | binds | hMQ22.101HC7/LC42 (antibody, V domains shown, also called isomerization mutant; heavy chain hVH22.101HC7 with light chain hVL22.101LC42) VH: QVQLVQSGAEVKKPGSSVKVSCKASGYTFTNYGMHWVRQAPGQGLEWMGWINTYSGEATYAQKFQGRVTITADESTSTAYMELSSLRSEDTAVYYCLRGYTYQSFDEGGDYWGQGTLVTVSS VL: DVVMTQSPLSLPVTLGQPASISCRSSQSLLDNDGKTYLNWFQQRPGQSPRRLIYLVSKLDSGVPDRFSGSGSGTDFTLKISRVEAEDVGVYYCWQGTHFPYTFGQGTKLEIK |
| binds | binds | hMQ22.101HC9/LC27 (antibody, V domains shown, also called isomerization mutant; heavy chain hVH22.101HC9 with light chain hVL22.101LC27) VH: RIQLVQSGAEVKKPGASVKVSCKASGYTFTNYGMHWVRQAPGQGLEWMGWINTYSGEATYVDDFQGRVTMTRDTSISTAYMELSRLRSDDTAVYYCLRGYTYQSFDEGGDYWGQGTLVTVSS VL: DVVMTQSPLSLPVTLGQPASISCRSSQSLLDTDAKTYLNWFQQRPGQSPRRLIYLVSKLDSGVPDRFSGSGSGTDFTLKISRVEAEDVGVYYCWQGTHFPYTFGQGTKLEIK |

Source: US20260176342A1 (CITRYLL B V, published 2026)
